Experimental data: patent publication US12702694B2, “Methods for identification, assessment, prevention, and treatment of metabolic disorders using SLIT2” (Dana-Farber Cancer Institute, Inc., priority 2015, dated 2026)

Legend:
lean mice = experiment: Tissue gene expression after intravenous delivery of adenovirus to lean mice; assay type: in vivo, Mus musculus
Experimental: All animal experiments were approved by the Institutional Animal Care and Use Committee of the Beth Israel Deaconess Medical Center. Mice (Mus musculus) were obtained from Jackson Laboratories, maintained in 12 hour light-lark cycles (6 a.m.-6 p.m.) at 22° C., and fed a standard irradiated rodent chow diet or a high-fat diet (60% fat) for 12-20 weeks. AAV-8 viruses (Penn Vector Core) and adenoviruses (Vector Biolabs or constructed in-house) were injected at a titer of 10^11 or 10^10 per mouse, respectively. All experiments were done with male mice. The aP2-PRDM16 transgenic mice have been previously described in Seale et al. (2011) J. Clin. Invest. 121:96-105. PRDM16-floxed mice were crossed with adiponectin-Cre and were maintained on a pure C57BL/6 background (Cohen et al. (2014) Cell 156:304-316). The Slit2-floxed mice have been described previously in Rama et al. (2015) Nat. Med. 21:483-491. Lean C57BL/6 mice were obtained from Jackson Laboratories and were […].
RNA was extracted from cultured cells or frozen tissue samples using TRIzol®, purified with QIAGEN RNeasy® minicolumns. Normalized RNA was reversed transcribed using a high-capacity cDNA reverse transcription lot (Applied Biosystems) and cDNA was analyzed by qRT-CPR. Relative mRNA levels were calculated using the comparative CT method and normalized to cyclophilin […]. All primers used are listed with their sequences in Table 3 as follows: […]
Slit2 full-length (untagged and Myc-DDK tagged) expression plasmids and corresponding LacZ control plasmids in adenovirus was purchased from Vector Biolabs. To construct the Slit2-N and Slit2-C ENTR clones, PCR primers were designed to amplify the signal peptide, N-terminal, and C-terminal Slit2 from mouse cDNA (OriGene MR227608). To construct the Slit2-N and Slit2-C ENTR clone, the Slit2N gene was amplified from mouse Slit2 cDNA to create PCR fragments corresponding to Slit2-signal peptide and Slit2-N that were ligated into the pENTR1a dual selection vector. The Slit2-C PCR fragment was sub-cloned into the pENTR1a vector containing the signal peptide. The Slit2-N and Slit2-C expression clones in which the fragments are fused to a C-terminal V5 tag were generated by performing the LR reaction between pENTR/D-TOPO-Slit2N or pENTR/D-TOPO-Slit2-C and pAD/CMV/V5-DEST (Life Technologies). The expression construct was cut with Pac and transfected into HEK-293A cells to produce crude adenoviral stock. Amplified virus was purified and concentrated using the Vivapure® adenopack 100 (Sartorius Stedim Biotech) and buffer exchanged to 10 mM Tris-Cl at pH 8.0, 2 mM MgCl2, 4% w/v sucrose. Adenovirus titer was calculated using an Adeno-X™ Rapid Titer kit (Clontech). For primary adipocytes a concentration of 10^8 pfu/well was used and 10^10 pfu/mouse were used for in vivo experiments. Expression levels of Slit2-N and Slit2-C were confirmed after 48 hours post infection by Western blot analysis using a V5 antibody (Life Technologies). Expression of Slit2-N and Slit2-C was performed by amplification from mouse Slit2 cDNA and ligated into the pENTR dual selection vector with a signal peptide sequence.

PKA signaling pathway = experiment: Western blotting of PKA and related signaling in primary inguinal cells; assay type: cell-based, Mus musculus; conditions: for PKA signaling after treatment with conditioned media: serum-free conditioned media from expressing cells, acute treatment (30 min), FIG. 10G
Experimental: (§1) Inguinal and brown stromal-vascular fractions were obtained from 6 weeks old male or newborn mice (postnatal days 5-10) for white and brown fat cultures, respectively. Inguinal fat tissue was dissected and washed with PBS, minced and digested for 45 min at 37° C. in PBS containing 10 mM CaCl2), 2.4 U/ml dispase II (Roche) and 10 mg/ml collagenase D (Roche). Brown fat tissue was dissected, washed with PBS, minced and digested for 45 min at 37° C. in PBS containing 1.3 mM CaCl2, 123 mM NaCl, 5 mM KCl, 5.0 mM glucose, 100 mM HEPES, 4% BSA and 1.5 mg/ml collagenase B (Roche). Digested tissue was filtered through a 100-μm cell strainer and centrifuged at 600 g for 10 min. Pelleted inguinal stromal-vascular cells were grown to confluence and induced to differentiate by an adipogenic cocktail containing 0.02 μM insulin, 1 μM rosiglitazone, 5 μM dexamethasone, 0.5 μM isobuthylmethylxanthine. For differentiation of brown fat cells, 1 nM T3 and 125 μM indomethacin were also added to the adipogenic cocktail. Two days after induction, cells were maintained in adipocyte culture medium containing 0.02 μM insulin and 1 μM rosiglitazone. Where indicated, cells were treated with forskolin (10 μM), norepinephrine (100 nM) for 4 h or with recombinant proteins (1 μg/ml, R&D systems) for 24 h or for the indicated times. For adenoviral overexpression of Slit2-FL, Slit2-N, Slit2-C, LacZ or Cre, virus was added at day 2 of differentiation at a titer of 10^8 particles/well and cells were analyzed at day 6-7. Where indicated, cells were treated with the drugs Erlotinib (SelleckChem), Lapatinib (Santa Cruz), PD0325901 (Santa Cruz), Propranolol (SelleckChem), H89 dihydrochloride (Santa Cruz), SQ-22536 (Santa Cruz) for indicated time points and concentrations.
For Western blotting, homogenized tissues, whole cell lysates, or concentrated serum free conditioned medium were lysed in RIPA buffer containing protease inhibitor cocktail (Thermo Scientific) and phosphatase inhibitor cocktail (Thermo Scientific), separated by SDS-PAGE and transferred to Immobilon-P® membranes (Millipore). For Western blotting of plasma samples, 1 μl of plasma was prepared containing 2× sample buffer (Invitrogen) with reducing agent, boiled and analyzed using Western blot against V5, FLAG, or the indicated antibody. V5-antibody was from Life Technologies and anti-Flag M2-HRP (A8592) from Sigma Aldrich. Anti-Slit2 antibody used was from Abcam (Abcam ab134166). Phospho-PKA Substrate, phospho-PKC Substrate, phospho-ERK1/2, total ERK, phospho-AKT, total AKT, phospho-AMPK, total AMPK, phospho-ATGL, ATGL, phospho-EGFR and EGFR were from Cell Signaling. Protein array was from R&D Systems (Proteome Profiler Mouse Phospho-RTK Array Kit, ARY014). Silverstain (SilverQuest™ Silver Staining Kit, LC6070) was purchased from Thermo Fisher.

[1] = test system: primary inguinal adipocytes; experiment: Thermogenic gene expression (qRT-PCR) in primary adipocytes treated with recombinant protein; assay type: cell-based, Mus musculus
Experimental: as §1, with “Where indicated, cells were treated with the drugs Erlotinib (SelleckChem), Lapatinib (Santa Cruz), PD0325901 (Santa Cruz), Propranolol (SelleckChem), H89 dihydrochloride (Santa Cruz), SQ-22536 (Santa Cruz) for indicated time points and concentrations.” left out
RNA was extracted from cultured cells or frozen tissue samples using TRIzol®, purified with QIAGEN RNeasy® minicolumns. Normalized RNA was reversed transcribed using a high-capacity cDNA reverse transcription lot (Applied Biosystems) and cDNA was analyzed by qRT-CPR. Relative mRNA levels were calculated using the comparative CT method and normalized to cyclophilin […]. […]

[2] = i.v. Slit2 adenovirus vs LacZ, lean mice, day 7, FIG. 4E
[3] = lean mice, Slit2-C adenovirus, FIG. 6D
[4] = Slit2-C-transduced cells, FIG. 10B

B1: Slit2: Slit family secreted extracellular matrix protein, full length ~180 kDa; used as commercial recombinant protein or adenovirally expressed (protein)
chain: QACPAQCSCSGSTVDCHGLALRSVPRNIPRNTERLDLNGNNITRITKIDFAGLRHLRVLQLMENRISTIERGAFQDLKELERLRLNRNNLQLFPELLFLGTAKLYRLDLSENQIQAIPRKAFRGAVDIKNLQLDYNQISCIEDGAFRALRDLEVLTLNNNNITRLSVASFNHMPKLRTFRLHSNNLYCDCHLAWLSDWLRQRPRVGLYTQCMGPSHLRGHNVAEVQKREFVCSGHQSFMAPSCSVLHCPAACTCSNNIVDCRGKGLTEIPTNLPETITEIRLEQNSIRVIPPGAFSPYKKLRRLDLSNNQISELAPDAFQGLRSLNSLVLYGNKITELPKSLFEGLFSLQLLLLNANKINCLRVDAFQDLHNLNLLSLYDNKLQTVAKGTFSALRAIQTMHLAQNPFICDCHLKWLADYLHTNPIETSGARCTSPRRLANKRIGQIKSKKFRCSGTEDYRSKLSGDCFADLACPEKCRCEGTTVDCSNQRLNKIPDHIPQYTAELRLNNNEFTVLEATGIFKKLPQLRKINFSNNKITDIEEGAFEGASGVNEILLTSNRLENVQHKMFKGLESLKTLMLRSNRISCVGNDSFIGLGSVRLLSLYDNQITTVAPGAFDSLHSLSTLNLLANPFNCNCHLAWLGEWLRRKRIVTGNPRCQKPYFLKEIPIQDVAIQDFTCDDGNDDNSCSPLSRCPSECTCLDTVVRCSNKGLKVLPKGIPKDVTELYLDGNQFTLVPKELSNYKHLTLIDLSNNRISTLSNQSFSNMTQLLTLILSYNRLRCIPPRTFDGLKSLRLLSLHGNDISVVPEGAFNDLSALSHLAIGANPLYCDCNMQWLSDWVKSEYKEPGIARCAGPGEMADKLLLTTPSKKFTCQGPVDITIQAKCNPCLSNPCKNDGTCNNDPVDFYRCTCPYGFKGQDCDVPIHACISNPCKHGGTCHLKEGENAGFWCTCADGFEGENCEVNIDDCEDNDCENNSTCVDGINNYTCLCPPEYTGELCEEKLDFCAQDLNPCQHDSKCILTPKGFKCDCTPGYIGEHCDIDFDDCQDNKCKNGAHCTDAVNGYTCVCPEGYSGLFCEFSPPMVLPRTSPCDNFDCQNGAQCIIRINEPICQCLPGYLGEKCEKLVSVNFVNKESYLQIPSAKVRPQTNITLQIATDEDSGILLYKGDKDHIAVELYRGRVRASYDTGSHPASAIYSVETINDGNFHIVELLTLDSSLSLSVDGGSPKVITNLSKQSTLNFDSPLYVGGMPGKNNVASLRQAPGQNGTSFHGCIRNLYINSELQDFRKMPMQTGILPGCEPCHKKVCAHGMCQPSSQSGFTCECEEGWMGPLCDQRTNDPCLGNKCVHGTCLPINAFSYSCKCLEGHGGVLCDEEEDLFNPCQMIKCKHGKCRLSGVGQPYCECNSGFTGDSCDREISCRGERIRDYYQKQQGYAACQTTKKVSRLECRGGCAGGQCCGPLRSKRRKYSFECTDGSSFVDEVEKVVKCGCARCAS
vascular and neuronal markers in fat or skeletal muscle (lean mice; 7 days postinjection, FIGS. 12D-12F): did not change | induction of PRDM16 in brown fat (lean mice; i.v. Slit2 adenovirus): greater than 2 fold | other thermogenic genes or UCP1 protein in brown fat (lean mice; i.v. Slit2 adenovirus): without any changes | induction of Ucp1 and Elovl3 in inguinal adipose tissue (lean mice; i.v. Slit2 adenovirus vs LacZ, day 7, FIG. 3F): 2 fold | induction of Prdm16 in iWAT (lean mice; [2]): 1.5 fold | induction of Ucp1 in iWAT (lean mice; [2]): 2.5 fold | lipolysis or lipogenesis gene expression in the liver (lean mice; i.v. Slit2 adenovirus, FIG. 4A): No changes | skeletal muscle gene expression of Glut1, Glut4 and Tnfa (lean mice; i.v. Slit2 adenovirus, FIG. 4B): no gene expression changes | white fat selective genes, including Leptin and Resistin (lean mice; iWAT, i.v. Slit2 adenovirus, FIG. 4E): strongly suppressed | PKA signaling after treatment with conditioned media (PKA signaling pathway): increased | expression of other genes associated with thermogenesis, including Dio2 and Cidea ([1]; recombinant Slit2 protein 1 μg/ml, 24 hours, FIG. 3A): large increases | increase in Ucp1 mRNA ([1]; recombinant Slit2 protein 1 μg/ml, 24 hours, fully differentiated primary inguinal adipocytes, FIG. 3A): ~ 3 fold

B2: Slit2-C: ~50 kDa C-terminal cleavage fragment of Slit2 beginning at TSP (SEQ ID NO: 22); adenovirally expressed or purified FLAG-tagged protein (protein, listed as Homo sapiens)
chain: TSPCDNFDCQNGAQCIIRINEPICQCLPGYLGEKCEKLVSVNFVNKESYLQIPSAKVRPQTNITLQIATDEDSGILLYKGDKDHIAVELYRGRVRASYDTGSHPASAIYSVETINDGNFHIVELLTLDSSLSLSVDGGSPKVITNLSKQSTLNFDSPLYVGGMPGKNNVASLRQAPGQNGTSFHGCIRNLYINSELQDFRKMPMQTGILPGCEPCHKKVCAHGMCQPSSQSGFTCECEEGWMGPLCDQRTNDPCLGNKCVHGTCLPINAFSYSCKCLEGHGGVLCDEEEDLFNPCQMIKCKHGKCRLSGVGQPYCECNSGFTGDSCDREISCRGERIRDYYQKQQGYAACQTTKKVSRLECRGGCAGGQCCGPLRSKRRKYSFECTDGSSFVDEVEKVVKCGCARCAS
modifications: FLAG tag
notes: adenovirally expressed or purified FLAG-tagged protein
induction of Ucp1 mRNA in iWAT (lean mice; lean mice injected with Slit2-C adenovirus, FIG. 6C): 3 fold | expression of mitochondrial genes (Atp5b, Uqcrb, Atp6vOa2, Atp9b, Cox5a) in BAT (lean mice; [3]): upregulation | transcriptional regulators Prdm16, Nrf1, and Erra in classical brown fat (lean mice; [3]): significant changes | activation of protein kinase C (PKC) substrates and ATGL S406 (PKA signaling pathway; FIG. 10E): minimal | protein levels of UCP1 (PKA signaling pathway; Slit2-C overexpression, FIGS. 10B, 10F): increased | phosphorylation of hormone sensitive lipase (HSL S660) (PKA signaling pathway; [4]): induced | total HSL (PKA signaling pathway; [4]): unaffected | phosphorylation of PKA substrates (PKA signaling pathway; Slit2-C-transduced vs lacZ-transduced cells, FIG. 10B): robust phosphorylation | PKA signaling after treatment with conditioned media (PKA signaling pathway): increased | subset of PKA substrate phosphorylations after purified protein treatment (PKA signaling pathway; time-dependent and dose-dependent, FIGS. 10M, 11F): increased | changes in thermogenic gene expression in white and brown adipocytes in culture ([1]; 2 h after purified protein treatment, FIG. 10N): induced
